Source: patent US8071348B2, “Protein tyrosine phosphatase substrate-trapping double mutant and uses thereof” (Albert Einstein College of Medicine of Yeshiva University, priority 2002, dated 2011)
[ ]: non-standard residue; d: D form. F2Pmp = N[C@@H](Cc1ccc(C(F)(F)P(=O)(O)O)cc1)C(=O)O

What was measured:
[1] = Kinetic constants for PTP1B-catalyzed hydrolysis of pNPP; assay type: biochemical; details: pNPP as substrate
Source text: The catalytic domain of PTP1B (residues 1 to 321) was used for in vitro study. PTP1B mutants, C215S, D181A, and Q262A, were described previously (9, 25, 26). PTP1B double mutants, D181A/C215S and C215S/Q262A, were generated by PCR reactions, according to the standard procedure of the Quick-Change™ site-directed mutagenesis kit (Stratagene), using pT7-7/PTP1B/C215S as a template. PTP1B double mutants, D181A/C215E and D181A/Q262A, were generated by similar PCR procedures, using pT7-7/PTP1B/D181A as a template. The recombinant wild-type and mutant PTP1Bs were expressed in E. coli, and purified to homogeneity as described (25, 27). Protein concentration was determined from absorbance measurement at 280 nm, using an absorbance coefficient of 1.24 for 1 mg/ml PTP1B.
PTP activity was assayed at 25° C. and pH 7.0, in a reaction mixture (0.2 ml) containing pNPP concentrations ranging from 0.2 to 5 Km. The following buffered solution was used for activity measurements: pH 7.0, 50 mM 3,3-dimethylglutarate, 1 mM EDTA; the ionic strength was 0.15 M, as adjusted by addition of NaCl. Initial rate measurements for the enzyme-catalyzed hydrolysis of pNPP were conducted as previously described (26). Michaelis-Menten kinetic parameters were determined from a direct fit of the data to the Michaelis-Menten equation, using the nonlinear regression program, KINETASYST (Intellikinetics, State College, Pa.).

[2] = biological target: T1, Ac-Asp-Ala-Asp-Glu-F2Pmp-Leu-NH2; experiment: ITC, 25 C, pH 7.0
T1 construct: Synthetic hexapeptide printed in three-letter code; also called F2Pmp-containing peptide; non-hydrolyzable substrate analog
T1 peptide: Ac-DADE[F2Pmp]L-NH2
Experimental: (§1) All isothermal titration calorimetry experiments were performed using an MCS Isothermal Titration Calorimetry System from Microcal Inc. (Northampton, Mass.). Experiments at pH 7.0 were conducted at 25° C., in 50 mM 3,3-dimethylglutarate buffer containing 1 mM DTT. The ionic strength of the buffer was adjusted to 0.15 M by addition of NaCl. Protein concentration in the calorimeter cell was 27-85 µM, while the ligand concentration in the syringe was 0.37-1 mM.
(§2) A typical titration curve and binding isotherm for the binding of D181A/Q262A to Ac-Asp-Ala-Asp-Glu-F_2Pmp-Leu-NH_2 is shown in FIG. 3. From curve-fitting of the binding isotherms, the stoichiometry for the binding of the peptide to D181A/Q262A was determined to be 1:1.

[3] = biological target: T1, Ac-Asp-Ala-Asp-Glu-F2Pmp-Leu-NH2; experiment: ITC
Experimental: as §1, §2

[4] = biological target: T1, Ac-Asp-Ala-Asp-Glu-F2Pmp-Leu-NH2; experiment: ITC, 25 C, pH 7.0
Experimental: as §1
The PTP1B samples used in the isothermal titration calorimetry experiments were dialyzed completely against buffer. High-concentration stock solutions were prepared for ligands with distilled water, and adjusted to pH 7.0. […] Protein dilution during titration was determined by titration of buffer into the protein solution. […] The heat of ligand dilution was corrected by subtracting the average heat of injection after saturation.
as §2

[5] = system: EGFR^988-998 peptide, DADEpYLIPQQG; experiment: Kinetic constants for PTP1B-catalyzed hydrolysis of pTyr-containing EGFR988-998 peptide; assay type: biochemical; details: EGFR988-998 peptide as substrate; 25° C. and pH 7.0
How it was run: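 PTP1B catalytic domain (residues 1–321), wild-type or mutant, expressed in E. coli. Continuous assay at 25° C., pH 7.0, in 50 mM 3,3-dimethylglutarate with 1 mM EDTA (ionic strength 0.15 M). Dephosphorylation followed by absorbance increase at 282 nm or fluorescence at 305 nm to obtain kcat and Km.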

B1: PTP1B/D181A/Q262A, catalytic domain (residues 1 to 321) (enzyme, human, UniProt P18031 1-321, looked up)
chain: MEMEKEFEQIDKSGSWAAIYQDIRHEASDFPCRVAKLPKNKNRNRYRDVSPFDHSRIKLHQEDNDYINASLIKMEEAQRSYILTQGPLPNTCGHFWEMVWEQKSRGVVMLNRVMEKGSLKCAQYWPQKEEKEMIFEDTNLKLTLISEDIKSYYTVRQLELENLTTQETREILHFHYTTWPAFGVPESPASFLNFLFKVRESGSLSPEHGPVVVHCSAGIGRSGTFCLADTCLLLMDKRKDPSSVDIKKVLLEMRKFRMGLIATADQLRFSYLAVIEGAKFIMGDSSVQDQWKELSHEDLEPPPEHIPPPPRPPKRILEPHN
notes: range 1-321; Used in vitro (ITC, kinetics); also called PTP1B substrate-trapping double mutant
Q: With B1 as the molecule, how does the “fold decrease in Km relative to D181A” value [1] read?
A: 33 fold

Q: What about the “fold decrease in kcat relative to D181A” value [1] of the same molecule?
A: 11 fold

Q: What about the Km ([1]; 25° C. and pH 7.0) of the same molecule?
A: 2.4 ± 0.5 µM

Q: What about the kcat ([1]; 25° C. and pH 7.0) of the same molecule?
A: (2.8 ± 0.1) × 10^−3 s^−1

Q: And the “fold higher affinity than the D181A mutant” value [2]?
A: ~6 fold

Q: And the “fold lower Kd than wild-type PTP1B and the C215S mutant” value [2]?
A: ~30 fold

Q: What about the “fold higher substrate-binding affinity than PTP1B/C215S” value [3] of the same molecule?
A: 28 fold

Q: What about the TΔS [4] of the same molecule?
A: 6.6 kcal/mol

Q: What about the ΔG [4] of the same molecule?
A: -11.1 kcal/mol

Q: What about the ΔH [4] of the same molecule?
A: -4.5 kcal/mol

Q: And the Km [5]?
A: 51 ± 4 µM

Q: What about the kcat [5] of the same molecule?
A: (2.7 ± 0.1) × 10^−3 s^−
